The values that follow come from US20260070975A1 (SANTA ANA BIO, published 2026).

For assay [1], the target named is T1, Human siglec-6 expressed on the cell surface (HMC1.2 cells; HEK293 cells expressing human siglec-6) (human, UniProt O43699 27-453).
T1 construct: whole, on cells; also called cell surface expressed siglec-6; CD327
Put plainly: flow cytometry on HMC1.2 cells. As for the experimental part:
(§1) Target binding of siglec-6 antibodies to siglec-6-expressing cells was assessed by flow cytometry. Cultured HMC1.2 cells were resuspended in FACS Blocking Buffer (PBS+10% normal human serum) for 30 minutes. Following washing, cells were incubated with siglec-6 antibodies in FACS Buffer (PBS+0.5% bovine serum albumin+0.09% sodium azide) and incubated at 4° C. for 30 minutes, washed and incubated with PE-labeled anti-human or anti-mouse secondary antibodies. Cells were incubated at 4° C. for 30 minutes in the dark. Following washing, cytofluorimetric analysis was conducted using a BD FACS Symphony A3 (BD Biosciences). Cells were sorted by scatter properties and separated for single cell analysis using side scatter width vs side scatter area. Antibody binding to cells was quantitated by measuring fluorescent emissions of excitation wavelength of 561 nm using a 586/15 nm filter. All tested siglec-6 antibodies were capable of binding to cells expressing siglec-6.
(In flow cytometry, cells or beads pass a laser one at a time.)

The target in assay [2] is T2, c-Kit expressed on the cell surface of M-07e cells (human, UniProt P10721 26-976). Description: cell-based or functional assay.
Assay [3] has as its target T3, Cynomolgus c-Kit (BLI analyte) (cynomolgus).
T3 construct: also called Cynomoguls c-Kit
Put plainly: BLI (Octet), antibody on capture sensor. As for the experimental part: (§2) Further, binding affinities of c-Kit antibodies to human c-Kit and cynomolgus c-Kit were measured by biolayer interferometry ([…]) using an Octect instrument. Briefly, capture sensors were loaded with test antibodies with 3-fold dilutions. The association and dissociation rates to were determined and used to calculate the equilibrium dissociation constant KD (Table 3).
A general note: BLI is a label-free optical method that tracks binding on a fibre tip over time.

Assay [4] addresses Human c-Kit (BLI analyte) (human, UniProt P10721 26-520, limits assumed). Put plainly: BLI (Octet), antibody on capture sensor. The protocol:
as §2

The target in assay [5] is T2, c-Kit expressed on the cell surface of …. Description: flow cytometry on M-07e cells. The protocol:
as §1, with “c-Kit” for “siglec-6”, “c-Kit-expressing” for “siglec-6-expressing”, “M-07e” for “HMC1.2”, “anti-human” for “anti-human or anti-mouse”, “antibody.” for “antibodies.”, “c-Kit.” for “siglec-6.”

The target of assay [6] is T4, His-tagged PDGFRb extracellular domain (UniProt P09619 33-532, limits assumed).
T4 construct: extracellular domain; also called c-Kit family member; not shown: His tag
Put plainly: ELISA, His-tagged extracellular domain coated. As for the experimental part:
(§3) His-tagged human c-Kit, His-tagged cynomolgus c-Kit, and His-tagged PDGFRa, PDGFRb, CSF1R, and FLT3 extracellular domains were immobilized on 96 well ELISA plates. Plates were washed with PBST (Phosphate buffered saline+0.05% Tween 20) and blocked for 1 hour with 1% BSA in PBS. Following washing with PBST, mAbs were added to the coated plate and incubated for 2 hours at room temperature. Plates were washed and incubated with HRP-conjugated goat anti-human IgG secondary antibody for 1 hour at room temperature. Following washing, antibody binding was detected colorimetrically by adding 3,3′,5,5′-tetramethylbenzidine (TMB) and incubated at room temperature for 10-20 minutes before adding 2.5N sulfuric acid stopping solution. Absorbance at 450 nm was measured on a plate reader (PerkinElmer). Data was analyzed using GraphPad Prism.

The target in assay [7] is T5, His-tagged FLT3 extracellular domain (UniProt P36888 27-543, limits assumed).
T5 construct: extracellular domain; also called c-Kit family member; not shown: His tag
T5 sequence (looked up): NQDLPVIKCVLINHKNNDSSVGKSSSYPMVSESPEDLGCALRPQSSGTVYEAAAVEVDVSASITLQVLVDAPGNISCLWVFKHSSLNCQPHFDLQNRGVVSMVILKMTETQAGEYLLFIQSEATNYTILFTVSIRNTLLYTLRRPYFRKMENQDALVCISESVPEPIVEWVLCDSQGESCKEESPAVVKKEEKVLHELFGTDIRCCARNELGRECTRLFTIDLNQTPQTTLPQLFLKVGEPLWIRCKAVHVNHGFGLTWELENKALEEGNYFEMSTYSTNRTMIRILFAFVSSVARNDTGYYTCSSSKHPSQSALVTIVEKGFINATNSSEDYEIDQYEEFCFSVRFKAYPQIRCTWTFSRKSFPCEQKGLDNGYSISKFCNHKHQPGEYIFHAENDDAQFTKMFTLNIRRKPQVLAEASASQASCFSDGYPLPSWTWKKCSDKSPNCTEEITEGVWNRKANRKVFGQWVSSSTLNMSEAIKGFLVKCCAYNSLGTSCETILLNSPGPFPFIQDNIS
Description: ELISA, His-tagged extracellular domain coated. The protocol:
as §3
In general terms: In an ELISA, binding on a coated surface is turned into a signal by an enzyme label.

The target of assay [8] is T6, His-tagged PDGFRa extracellular domain (UniProt P16234 24-528, limits assumed).
T6 construct: extracellular domain; also called c-Kit family member; not shown: His tag
Put plainly: ELISA, His-tagged extracellular domain coated. The protocol: as §3

Assay [9] deals with T7, His-tagged CSF1R extracellular domain (UniProt P07333 20-517, limits assumed).
T7 construct: extracellular domain; also called c-Kit family member; not shown: His tag
Put plainly: ELISA, His-tagged extracellular domain coated. As for the experimental part:
as §3

The target of assay [10] is T2, c-Kit expressed on the cell surface of …. Put plainly: cell-based or functional assay. The source holds these as a separate data set.

Where a chain is given by its changes, count along the chain named.

T7 sequence (P07333 20-517 limits assumed): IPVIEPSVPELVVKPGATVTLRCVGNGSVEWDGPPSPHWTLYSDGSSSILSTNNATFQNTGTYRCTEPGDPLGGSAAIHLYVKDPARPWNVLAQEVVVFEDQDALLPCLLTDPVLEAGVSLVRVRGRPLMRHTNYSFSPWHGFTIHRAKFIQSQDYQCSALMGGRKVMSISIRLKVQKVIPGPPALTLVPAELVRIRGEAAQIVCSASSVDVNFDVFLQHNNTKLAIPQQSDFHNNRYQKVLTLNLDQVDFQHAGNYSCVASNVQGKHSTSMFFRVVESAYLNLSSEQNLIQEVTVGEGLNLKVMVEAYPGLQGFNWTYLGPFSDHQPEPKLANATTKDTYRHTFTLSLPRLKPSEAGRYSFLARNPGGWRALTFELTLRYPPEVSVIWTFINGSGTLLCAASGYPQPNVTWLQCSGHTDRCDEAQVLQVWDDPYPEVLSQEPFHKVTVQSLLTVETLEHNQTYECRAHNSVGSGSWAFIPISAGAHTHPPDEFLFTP
Human c-Kit (BLI analyte), sequence (P10721 26-520 limits assumed): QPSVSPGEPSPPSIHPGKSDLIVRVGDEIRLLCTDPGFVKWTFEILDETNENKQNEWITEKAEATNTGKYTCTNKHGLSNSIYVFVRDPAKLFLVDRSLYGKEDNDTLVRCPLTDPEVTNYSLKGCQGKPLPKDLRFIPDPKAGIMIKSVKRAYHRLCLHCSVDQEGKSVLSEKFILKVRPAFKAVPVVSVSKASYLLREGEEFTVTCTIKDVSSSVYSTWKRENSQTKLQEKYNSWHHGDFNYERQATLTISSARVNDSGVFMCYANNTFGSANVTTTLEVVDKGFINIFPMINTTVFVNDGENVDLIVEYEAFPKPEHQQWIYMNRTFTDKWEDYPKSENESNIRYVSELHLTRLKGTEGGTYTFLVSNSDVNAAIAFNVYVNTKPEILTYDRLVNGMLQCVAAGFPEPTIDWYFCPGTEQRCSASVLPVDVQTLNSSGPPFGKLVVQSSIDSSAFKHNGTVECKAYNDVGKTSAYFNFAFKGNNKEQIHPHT
T2 sequence (P10721 26-976): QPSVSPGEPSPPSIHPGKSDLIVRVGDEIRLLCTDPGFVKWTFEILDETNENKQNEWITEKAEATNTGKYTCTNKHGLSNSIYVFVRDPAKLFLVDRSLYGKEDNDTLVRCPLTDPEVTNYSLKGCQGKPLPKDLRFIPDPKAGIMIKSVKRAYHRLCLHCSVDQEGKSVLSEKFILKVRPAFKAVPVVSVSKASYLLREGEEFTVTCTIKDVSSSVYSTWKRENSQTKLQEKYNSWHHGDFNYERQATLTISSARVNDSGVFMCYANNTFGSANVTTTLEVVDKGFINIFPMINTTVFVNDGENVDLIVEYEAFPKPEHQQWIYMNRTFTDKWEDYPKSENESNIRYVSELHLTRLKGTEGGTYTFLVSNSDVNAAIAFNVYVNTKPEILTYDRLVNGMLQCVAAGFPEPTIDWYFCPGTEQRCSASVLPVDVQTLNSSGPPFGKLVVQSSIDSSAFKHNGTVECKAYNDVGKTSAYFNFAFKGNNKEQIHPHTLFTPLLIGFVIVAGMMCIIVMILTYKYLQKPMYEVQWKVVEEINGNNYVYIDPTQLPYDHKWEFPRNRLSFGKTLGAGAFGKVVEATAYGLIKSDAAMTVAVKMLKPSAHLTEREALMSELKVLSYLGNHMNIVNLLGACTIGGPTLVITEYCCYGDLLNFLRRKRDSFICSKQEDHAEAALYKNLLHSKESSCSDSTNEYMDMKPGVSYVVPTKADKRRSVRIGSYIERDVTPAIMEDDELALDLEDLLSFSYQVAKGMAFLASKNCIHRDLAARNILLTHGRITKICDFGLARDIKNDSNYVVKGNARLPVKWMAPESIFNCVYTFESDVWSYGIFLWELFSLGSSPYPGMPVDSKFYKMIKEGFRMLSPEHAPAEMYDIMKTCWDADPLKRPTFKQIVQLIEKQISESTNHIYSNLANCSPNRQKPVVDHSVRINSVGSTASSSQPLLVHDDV
T6 sequence (P16234 24-528 limits assumed): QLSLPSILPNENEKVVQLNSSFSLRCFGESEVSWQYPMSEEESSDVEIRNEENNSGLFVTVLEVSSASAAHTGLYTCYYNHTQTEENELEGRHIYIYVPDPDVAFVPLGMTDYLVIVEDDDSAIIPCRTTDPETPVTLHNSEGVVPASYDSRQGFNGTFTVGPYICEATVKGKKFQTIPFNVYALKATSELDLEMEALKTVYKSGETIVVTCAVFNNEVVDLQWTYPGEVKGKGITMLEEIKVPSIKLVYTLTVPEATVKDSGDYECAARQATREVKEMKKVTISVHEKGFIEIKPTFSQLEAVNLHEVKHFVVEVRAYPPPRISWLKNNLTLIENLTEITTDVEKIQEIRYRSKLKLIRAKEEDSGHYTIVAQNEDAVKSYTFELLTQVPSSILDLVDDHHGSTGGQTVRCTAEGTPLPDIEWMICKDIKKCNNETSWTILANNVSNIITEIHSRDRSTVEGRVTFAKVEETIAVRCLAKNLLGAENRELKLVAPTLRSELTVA
T4 sequence (P09619 33-532 limits assumed): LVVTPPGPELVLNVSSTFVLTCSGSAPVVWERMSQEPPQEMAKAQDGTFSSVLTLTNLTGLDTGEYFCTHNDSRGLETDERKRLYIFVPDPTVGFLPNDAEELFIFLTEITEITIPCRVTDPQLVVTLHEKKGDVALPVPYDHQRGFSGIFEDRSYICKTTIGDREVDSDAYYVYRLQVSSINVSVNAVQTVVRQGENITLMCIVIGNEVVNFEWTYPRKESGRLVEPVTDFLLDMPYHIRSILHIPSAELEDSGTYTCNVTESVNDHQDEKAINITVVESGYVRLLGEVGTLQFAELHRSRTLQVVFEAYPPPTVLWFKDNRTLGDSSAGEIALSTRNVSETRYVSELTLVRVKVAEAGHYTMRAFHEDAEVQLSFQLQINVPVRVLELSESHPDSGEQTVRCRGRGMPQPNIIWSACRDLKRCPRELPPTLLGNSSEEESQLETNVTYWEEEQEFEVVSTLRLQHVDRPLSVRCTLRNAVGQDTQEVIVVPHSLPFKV
T1 sequence (O43699 27-453): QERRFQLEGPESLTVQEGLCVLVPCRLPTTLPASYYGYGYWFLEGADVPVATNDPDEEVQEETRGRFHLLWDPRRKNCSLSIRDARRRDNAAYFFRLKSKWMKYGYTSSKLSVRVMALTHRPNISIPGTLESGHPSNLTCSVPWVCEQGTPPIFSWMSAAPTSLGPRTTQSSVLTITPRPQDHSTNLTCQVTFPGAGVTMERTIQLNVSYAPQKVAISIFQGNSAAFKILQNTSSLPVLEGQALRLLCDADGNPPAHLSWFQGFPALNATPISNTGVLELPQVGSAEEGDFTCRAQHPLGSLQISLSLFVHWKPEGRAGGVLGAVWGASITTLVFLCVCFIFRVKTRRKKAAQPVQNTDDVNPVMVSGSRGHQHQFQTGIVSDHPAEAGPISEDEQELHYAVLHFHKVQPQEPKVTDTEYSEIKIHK

B1: Murine anti-siglec-6 RND (mRND) (antibody, mouse IgG2a, kappa, V domains shown)
VH: QVQLQQPGAELVKPGASVKLSCKASGYAFTSYWMHWVKLRPGQGFEWIGEIYPTNGGTTYNEKFKRKATLTVDKSSSTAYMQLSSLTSEDSAVYYCTIEDFYAMDYWGQGTSVTVSS
VL: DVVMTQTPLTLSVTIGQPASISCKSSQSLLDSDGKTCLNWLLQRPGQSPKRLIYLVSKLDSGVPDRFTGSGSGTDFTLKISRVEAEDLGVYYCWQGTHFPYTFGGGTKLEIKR
notes: also called murine RND; copies: 2 + 2
B1: in assay [1], the MFI is 1970 MFI and the “Percent Positive for Siglec-6 on HMC1.2 cells” value is 99.9%.

B2: Murine anti-c-Kit SR1 (mSR1) (antibody, mouse IgG2a, kappa)
heavy: QVQLQQPGAELVKPGASVKMSCKASGYTFTSYNMHWVKQTPGQGLEWIGVIYSGNGDTSYNQKFKGKATLTADKSSSTAYMQINSLTSEDSAVYYCARERDTRFGNWGQGTLVTVSAAKTTAPSVYPLAPVCGDTTGSSVTLGCLVKGYFPEPVTLTWNSGSLSSGVHTFPAVLQSDLYTLSSSVTVTSSTWPSQSITCNVAHPASSTKVDKKIEPRGPTIKPCPPCKCPAPNLLGGPSVFIFPPKIKDVLMISLSPIVTCVVVDVSEDDPDVQISWFVNNVEVHTAQTQTHREDYNSTLRVVSALPIQHQDWMSGKEFKCKVNNKDLPAPIERTISKPKGSVRAPQVYVLPPPEEEMTKKQVTLTCMVTDFMPEDIYVEWTNNGKTELNYKNTEPVLDSDGSYFMYSKLRVEKKNWVERNSYSCSVVHEGLHNHHTTKSFSRTPGK
light: NIVLTQSPASLAVSLGLRATISCRASESVDIYGNSFMHWYQQKPGQPPKLLIYLASNLESGVPARFSGSGSRTDFTLTIDPVEADDAATYYCQQNNEDPYTFGGGTKLEIKRADAAPTVSIFPPSSEQLTSGGASVVCFLNNFYPKDINVKWKIDGSERQNGVLNSWTDQDSKDSTYSMSSTLTLTKDEYERHNSYTCEATHKTSTSPIVKSFNRNEC
Consider B2, for which, in [2], the “IC50, inhibition of SCF-dependent proliferation of M-07e cells” value (from here on “IC50, inhibition”) was 0.283 nM.

B3: hSR1-1 (antibody, human IgG1, kappa, V domains shown)
VH: QVQLVQSGAEVKKPGASVKVSCKASGYTFTSYNMHWVRQAPGQGLEWMGVIYSGNGDTSYAQKFQGRVTMTADTSTSTAYMELSSLRSEDTAVYYCARERDTRFGNWGQGTLVTVSS
VL: DIQLTQSPSSLSASVGDRATITCRASESVDIYGNSFMHWYQQKPGKAPKLLIYLASNLESGVPSRFSGSGSGTDFTLTISSVQPEDFATYYCQQNNEDPYTFGQGTKLEIKR
notes: Humanized anti-c-Kit antibody; also called humanized SR1-1; hSR1-H2 / hSR1-L2
Turning to B3, in [2], the “IC50, inhibition” value came out at 0.141 nM. For the same molecule, the Kd (as a rule, a measure of binding affinity in units of concentration) in assay [3] was determined as 0.232 nM; in assay [4] it was 0.199 nM. For the same molecule, the “Measuring Fluorescent Intensity (MFI)” value in assay [5] is 5020 MFI. The “Percent Positive for c-Kit on M-07e cells” value (“Percent Positive for c-Kit” for short) in assay [5] amounted to 99.5%. The binding result in [6], in [7], in [8] and in assay [9] was “no binding” throughout.

B4: anti-siglec/anti-c-Kit bispecific JML-1/hSR1-1 (bispecific antibody, V domains shown)
VH 1: KVQLLESGGGLVQPGRSLRLSCAASGFTFDDYGMHWVRQAPGKGLEWVSGISWNSGSIGYADSVKGRFTISRDNSKNTLYLQMNSLRAEDTAVYYCARGGQTIDIWGQGTMVTVSS
VL 1: not shown
VH 2: B3 VH
VL 2: DIQLTQSPSSLSASVGDRATITCRASESVDIYGNSFMHWYQQKPGKAPKLLIYLASNLESGVPSRFSGSGSGTDFTLTISSVQPEDFATYYCQQNNEDPYTFGQGTKLEIK
Turning to B4, the “IC50 (read off the curve)” value in [10] was roughly 0.3 nM.

B5: hSR1-2 (antibody, human IgG1, kappa, V domains shown)
VH: B3 VH with V20M, M48I, V68A, M70L
VL: B3 VL
notes: also called humanized SR1-2; hSR1-H3 / hSR1-L2
With B5, the “IC50, inhibition” value in assay [2] stood at 0.142 nM. For the same molecule, the figures for the dissociation constant (Kd) in [3] and in assay [4] were 0.389 nM and 0.245 nM, respectively. Besides, the “Measuring Fluorescent Intensity (MFI)” value in [5] was 5200 MFI. In addition, the “Percent Positive for c-Kit” value in assay [5] was determined as 99.7%. For the same molecule, the binding result in assay [6], in assay [7], in assay [8] and in assay [9] was “no binding” each time.

B6: hSR1-5 (antibody, human IgG1, kappa, V domains shown)
VH: B3 VH
VL: B3 VL with G72R
notes: also called humanized SR1-5; hSR1-H2 / hSR1-L2r
As for B6, in [2], the “IC50, inhibition” value amounted to 0.141 nM. For the same molecule, the values for the Kd in [3] and in assay [4] were 0.405 nM and 0.256 nM, respectively. In [5], the “Measuring Fluorescent Intensity (MFI)” value amounted to 4030 MFI. The “Percent Positive for c-Kit” value in assay [5] turned out to be 99.5%. The binding result in assay [6], in assay [7], in [8] and in assay [9] was “no binding” throughout.

B7: hSR1-6 (antibody, human IgG1, kappa, V domains shown)
VH: B3 VH with V20M, M48I, V68A, M70L
VL: B3 VL with G72R
notes: also called humanized SR1-6; hSR1-H3 / hSR1-L2r
In the case of B7, the “IC50, inhibition” value in assay [2] came out at 0.152 nM. The Kd in assay [3] worked out at 0.296 nM; in assay [4], 0.247 nM. Further, in [5], the “Measuring Fluorescent Intensity (MFI)” value turned out to be 3590 MFI. The “Percent Positive for c-Kit” value in [5] was found to be 99.4%. Also, the binding result in [6], in [7], in [8] and in [9] was “no binding” in each case.

B8: hSR1-3 (antibody, human IgG1, kappa, V domains shown)
VH: B3 VH with T74K
VL: B3 VL
notes: also called humanized SR1-3; hSR1-H2b / hSR1-L2
With B8, in assay [2], the “IC50, inhibition” value was determined as 0.113 nM. Moreover, the Kd in assay [3] turned out to be 0.332 nM; in assay [4], 0.256 nM. Further, the “Measuring Fluorescent Intensity (MFI)” value in [5] came out at 5190 MFI. In addition, the “Percent Positive for c-Kit” value in assay [5] is 99.8%. Moreover, the binding result in assay [6], in assay [7], in [8] and in assay [9] was “no binding” each time.

B9: hSR1-4 (antibody, human IgG1, kappa, V domains shown)
VH: B3 VH with V20M, M48I, V68A, M70L, T74K
VL: B3 VL
notes: also called humanized SR1-4; hSR1-H3b / hSR1-L2
As to B9, in assay [2], the “IC50, inhibition” value was 0.139 nM. Also, the equilibrium dissociation constant (Kd) in assay [3] was 0.563 nM; in assay [4], 0.386 nM. Besides, in assay [5], the “Measuring Fluorescent Intensity (MFI)” value was 4960 MFI. The “Percent Positive for c-Kit” value in [5] was 99.8%. The binding result in assay [6], in [7], in assay [8] and in assay [9] was “no binding” throughout.
